Laboratory results: article PMC11997425, “MADS-domain transcription factor AGAMOUS LIKE-9 participates in the gibberellin pathway to promote bud dormancy release of tree peony”

Assays:
GST-PsAGL9 [1] = target: T1, GST-PsAGL9 (Paeonia suffruticosa, UniProt V9I0Q3 1-243); test: EMSA; 10x and 20x cold probe weakened signal; Chemiluminescent EMSA Kit (Beyotime); buffer, salt, pH and temperature not stated; conditions: protein: recombinant; tags: GST (pGEX-4T-1); label: biotin; blunt
GST-PsAGL9 [2] = target: T1, GST-PsAGL9; test: competition; 10x and 20x cold mutant probe did not affect signal; Chemiluminescent EMSA Kit (Beyotime); buffer, salt, pH and temperature not stated; conditions: protein: recombinant; tags: GST (pGEX-4T-1)
GST-PsAGL9 [3] = target: T1, GST-PsAGL9; test: EMSA; Chemiluminescent EMSA Kit (Beyotime); buffer, salt, pH and temperature not stated; conditions: protein: recombinant; tags: GST (pGEX-4T-1); label: biotin

T1 sequence (V9I0Q3 entry or part of it): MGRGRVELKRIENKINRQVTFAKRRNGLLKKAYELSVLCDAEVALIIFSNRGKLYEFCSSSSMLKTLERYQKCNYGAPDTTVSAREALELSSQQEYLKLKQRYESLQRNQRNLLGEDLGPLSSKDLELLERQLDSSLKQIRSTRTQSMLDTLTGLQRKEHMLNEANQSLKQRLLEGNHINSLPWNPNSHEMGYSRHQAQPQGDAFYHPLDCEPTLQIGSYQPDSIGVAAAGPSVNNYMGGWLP

B1: PsCYCD CArG probe (dsDNA)
DNA 1: TTTGGCCAATTTTGGTTAA
DNA 2: TTAACCAAAATTGGCCAAA
GST-PsAGL9 [1]
  binding result: binds

B2: PsCYCD mutant probe (cold-mP) (dsDNA)
DNA 1: TTTGGCCGACCGGGGTTAA
DNA 2: TTAACCCCGGTCGGCCAAA
GST-PsAGL9 [2]
  binding result: no binding

B3: PsEBB3 CArG probe (dsDNA)
DNA 1: ATGTCCATAATTTAGGCCTA
DNA 2: TAGGCCTAAATTATGGACAT
GST-PsAGL9 [3]
  binding result: binds
